The results in this text go back to US20060216303A1.

The assay deals with bacterial fusion protein 11-2 (a hybrid of b-galactosidase and human mammary mucin) (human) (UniProt P15941). Put plainly: reciprocal of the competitor concentration giving 50% binding; competition radioimmunoassay on 11-2 fusion protein.

B1: murine-human chimeric BrE-3 antibody (antibody, V domains shown)
VH: EVKLEESGGGLVQPGGSMKLSCAASGFTFSDAWMDWVRQSPEKGLEWVAEIRNKANNHATYYDESVKGRFTISRDDSKSRVYLQMISLRAEDTGLYYCTGEFANWGQGTLVTVSA
VL: DVVMTQTPLSLPVSLGDQASISCRSSQNLVHNNGNTYLYWFLQKSGQSPKLLIYRASIRFSGVPDRFSGSGSETDFTLKISRVEAEDLGVYFCFQGTHVPWTFGGGTKLEIK
B1 registered a Ka of 2.68e+08 M⁻¹.

B2: murine BrE-3 monoclonal antibody (antibody, V domains shown)
VH: EVKLEESGGGLVQPGGSMKLSCAASGFTFSDAWMDWVRQSPEKGLEWVAEIRNKANNHATYYDESVKGRFTISRDDSKSRVYLQMISLRAEDTGLYYCTGEFANWGQGTLVTVSA
VL: DVVMTQTPLSLPVSLGDQASISCRSSQNLVHNNGNTYLYWFLQKSGQSPKLLIYRASIRFSGVPDRFSGSGSETDFTLKISRVEAEDLGVYFCFQGTHVPWTFGGGTKLEIK
For the molecule B2, the Ka is 3.75e+08 M⁻¹.
